Data on one molecule can be found in patent CN111138527A (INST MILITARY MEDICINE ACADEMY MILITARY SCIENCES PLA, dated 2020).

This experiment concerns the target 截短型抗原蛋白GPdM (Ebola virus (EBOV), UniProt Q05320 33-632). The experiment is described as follows: ELISA on coated truncated GP. On the technique in general: In an ELISA, binding on a coated surface is turned into a signal by an enzyme label.

B1: 抗埃博拉病毒糖蛋白GP1亚基的单克隆抗体4F1 (antibody, V domains shown)
VH: EVQLVESGGGLVQPGGSLRLSCAASGFSFRIYDMHWVRQVTGRGLEWVSAIGSASDTYYRDSVKGRFTISRENAKNSLYLQMNSLRAGDTAVYYCARASFGELMFDLWGQGTLVTVSS
VL: DIQMTQSPSSLSLSPGERATLSCRASQSVGSSLAWYQQKPGQAPRLLIYAASSRATGFPDRFSGSGSGTDFTLTISRLEPEDFAVYYCQQYGGSPLTFGGGTKVEIKT
In general, EC50 refers to the concentration that produces a half-maximal response. High values mean a need for much substance, low ones an effect from little substance. For B1, the response was half-maximal at 6.9 ng/mL (EC50).
